The test deals with T1, human C1s (human, UniProt P09871 16-688).
T1 sequence: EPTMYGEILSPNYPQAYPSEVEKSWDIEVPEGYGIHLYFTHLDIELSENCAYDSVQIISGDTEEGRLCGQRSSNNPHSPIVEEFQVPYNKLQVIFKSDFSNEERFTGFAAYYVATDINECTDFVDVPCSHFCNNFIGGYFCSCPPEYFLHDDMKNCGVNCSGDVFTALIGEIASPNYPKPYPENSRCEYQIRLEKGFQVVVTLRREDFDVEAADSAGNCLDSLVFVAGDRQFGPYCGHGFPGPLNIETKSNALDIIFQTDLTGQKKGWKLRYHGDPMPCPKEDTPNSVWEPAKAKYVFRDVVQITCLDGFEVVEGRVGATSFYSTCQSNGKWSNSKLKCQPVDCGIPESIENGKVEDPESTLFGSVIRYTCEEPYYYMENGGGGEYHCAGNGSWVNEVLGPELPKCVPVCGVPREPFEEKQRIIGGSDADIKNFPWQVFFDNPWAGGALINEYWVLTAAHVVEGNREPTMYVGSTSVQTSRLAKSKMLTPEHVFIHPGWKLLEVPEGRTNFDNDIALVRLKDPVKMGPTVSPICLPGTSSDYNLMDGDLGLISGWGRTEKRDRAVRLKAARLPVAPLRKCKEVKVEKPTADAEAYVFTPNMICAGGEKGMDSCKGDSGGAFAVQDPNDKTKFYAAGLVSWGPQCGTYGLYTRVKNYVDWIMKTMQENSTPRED
Kind of test: cell-based or functional assay.

B1: BIVV009 (antibody, human IgG4 S228P, kappa, V domains shown)
VH: EVQLVESGGGLVKPGGSLRLSCAASGFTFSNYAMSWVRQAPGKGLEWVATISSGGSHTYYLDSVKGRFTISRDNSKNTLYLQMNSLRAEDTALYYCARLFTGYAMDYWGQGTLVTVSS
VL: QIVLTQSPATLSLSPGERATMSCTASSSVSSSYLHWYQQKPGKAPKLWIYSTSNLASGVPSRFSGSGSGTDYTLTISSLQPEDFATYYCHQYYRLPPITFGQGTKLEIKR
On to B1, for which the “IC50 (concentration associated to 50% of the maximum effect) on serum classical complement pathway (CP) activity, WIESLAB assay, inhibitory Emax model” value is 6.2 µg/mL.

For the origin of these results see patent publication US20250145696A1 (BIOVERATIV USA, published 2025).
